From publication PMC12192683, “The LDL receptor-related protein 1 (LRP1) facilitates ACE2-mediated endocytosis of SARS-CoV2 spike protein-containing pseudovirions” (The Journal of Biological Chemistry, 2025)

B1: LRP1 cluster II (domain or fragment)
chain: PQCQPGEFACANSRCIQERWKCDGDNDCLDNSDEAPALCHQHTCPSDRFKCENNRCIPNRWLCDGDNDCGNSEDESNATCSARTCPPNQFSCASGRCIPISWTCDLDDDCGDRSDESASCAYPTCFPLTQFTCNNGRCININWRCDNDNDCGDNSDEAGCSHSCSSTQFKCNSGRCIPEHWTCDGDNDCGDYSDETHANCTNQATRPPGGCHTDEFQCRLDGLCIPLRWRCDGDTDCMDSSDEKSCEGVTHVCDPSVKFGCKDSARCISKAWVCDGDNDCEDNSDEENCESLACRPPSHPCANNTSVCLPPDKLCDGNDDCGDGSDEGELC
B2: LRP1 cluster III (domain or fragment)
chain: not shown
B3: Soluble form of the VLDL receptor containing repeats 1 to 8 (domain or fragment)
chain: not shown
notes: also called VLDLR 1 to 8; recombinant soluble VLDLR
B4: LRP1 cluster IV (domain or fragment)
chain: not shown

Target: T1, SARS-CoV-2 spike protein S1 subunit (Val16-Arg685) fused to the Fc region of mouse IgG1 (SARS-CoV-2, UniProt P0DTC2 16-685)
T1 construct: The SPR methods name S1-mFc for LRP1, VLDLR and LRP2; I took it as the S1 subunit of all SPR experiments; also called S1-mFc; Spike S1 subunit; source: bought: Sino Biological; not shown: Fc (mouse IgG1), C-terminal, kept
Test: SPR; Biacore 3000; receptor amine-coupled to CM5 chip; ligand flowed in HBS-P (0.01 M HEPES pH 7.4, 0.15 M NaCl, 0.005% P20) with 1 mM CaCl2, 10 ul/min, 25 C; kinetic fit to a 1:1 Langmuir model
Details: both partners purified

Row | Binder | Kd [nM] | koff [s⁻¹] | kon [M⁻¹ s⁻¹]
1 | B1 | 33 | 0.00042 | 13000
2 | B2 | 22 | 0.00027 | 12000
3 | B3 | 5 | 0.00027 | 110000
4 | B4 | 67 | 0.00066 | 9800
